According to publication PMC11096021:

Key:
[1] = target: A/Michigan/45/2015 H1 trimer (for structural studies) (influenza A virus A/Michigan/45/2015 (H1)); experiment: cryo-EM structure
[2] = target: A/Perth/16/2009 H3 trimer (for structural studies) (influenza A virus A/Perth/16/2009 (H3N2)); experiment: cryo-EM structure
[3] = target: A/Perth/16/2009 H3 trimer (for structural studies) (influenza A virus A/Perth/16/2009 (H3N2)); experiment: crystal structure

A/Michigan/45/2015 H1 trimer (for structural studies) (natural protein)
stoichiometry N [1]: 3

A/Perth/16/2009 H3 trimer (for structural studies) (natural protein)
stoichiometry N [2]: 3
stoichiometry N [3]: 3
